This passage reports stoichiometry N results from PMC12846601.

The target in this assay is HexaPro, recombinant SARS-CoV-2 spike protein vaccine candidate (SARS-CoV-2) (UniProt P0DTC2). The assay is described as follows: SEC; […], PBS ([…], pH 6.5), 1.25 mL/min, […]. Background: Size exclusion chromatography separates by hydrodynamic size, large species first.

In general, stoichiometry N refers to a count of units in the complex or per binding partner. Turning to “HexaPro, recombinant SARS-CoV-2 spike protein vaccine candidate (from UniProt P0DTC2 14-1273) (natural protein)”, the stoichiometry N is 3.
